In PMC10360031:

How the values were obtained:
[1] = target: recombinant human Vim (human) (UniProt P08670); assay: AFM single-molecule force spectroscopy
[2] = target: recombinant human Vim (human) (UniProt P08670); assay: quartz crystal microbalance with dissipation (QCM-D)
[3] = target: recombinant human Vim (human) (UniProt P08670); assay: quartz crystal microbalance with dissipation (QCM-D); pH 7.4

recombinant human Vim (human), sequence (P08670 whole entry): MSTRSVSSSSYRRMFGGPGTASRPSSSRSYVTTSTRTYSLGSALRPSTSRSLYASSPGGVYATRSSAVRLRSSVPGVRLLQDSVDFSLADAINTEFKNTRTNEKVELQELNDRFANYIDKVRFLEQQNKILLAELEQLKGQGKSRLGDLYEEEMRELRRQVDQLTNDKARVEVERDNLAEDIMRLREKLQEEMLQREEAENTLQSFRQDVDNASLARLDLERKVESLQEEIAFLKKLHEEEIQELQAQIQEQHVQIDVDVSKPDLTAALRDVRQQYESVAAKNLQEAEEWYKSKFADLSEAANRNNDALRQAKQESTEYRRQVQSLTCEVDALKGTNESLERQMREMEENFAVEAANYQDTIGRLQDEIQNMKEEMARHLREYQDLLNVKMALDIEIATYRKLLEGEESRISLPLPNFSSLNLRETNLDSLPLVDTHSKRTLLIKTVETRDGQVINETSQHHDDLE

wild-strain SARS-CoV-2 spike protein RBD (from UniProt P0DTC2) (domain or fragment)
binding probability (specific adhesion events) (% of force curves) [1]: < 20 | rupture force at 5 um/s [1]: 58 pN | Ka (equilibrium adsorption constant), fraction I [2]: 0.0011 cm | Ka (equilibrium adsorption constant), fraction II [2]: 0.46 cm | Keq, fraction I [2]: 4.7e+06 L mol^–1 | Keq, fraction II [2]: 9.2e+08 L mol^–1 | desorption time, loosely bound fraction [2]: 200 s | desorption time, tightly bound fraction [2]: > 10000 s | kd' (desorption constant), fraction I [2]: 0.063 s^–1 | kd' (desorption constant), fraction II [2]: 0.00015 s^–1 | adsorbed amount [3]: 1 mg m^–2
